The results in this text go back to patent US20220041692A1.

Bridge positions count the residues as written; N and C are the ends. Ends that are not written are not given here.

The target of this test is polyclonal mouse anti-TSHR antibodies contained in sera from Ad-TSHR-immunized mice. The experiment in a line: competition ELISA: sera pre-incubated with peptide 19, binding of polyclonal anti-TSHR antibodies to coated TSHR-Fc. In general terms: In an ELISA, binding on a coated surface is turned into a signal by an enzyme label.

The molecule CHQEEDFRVTC (disulfide 1-11) [cyclic peptide 19] displayed an IC50 of 20 nM.

Usually IC50 stands for the concentration needed to halve the response being measured. Low values mean greater potency, high ones weaker potency.
